The record followed here is patent US11873336 (TENEOBIO, dated 2024).

Assay [1] has as its target T1, human CD22 on CD22-positive Burkitt's lymphoma cells (Daudi, Raji, Ramos) (human, UniProt P20273 20-847).
T1 construct: whole, on cells; also called CD22+ cells; CD22 positive cells
T1 sequence (looked up): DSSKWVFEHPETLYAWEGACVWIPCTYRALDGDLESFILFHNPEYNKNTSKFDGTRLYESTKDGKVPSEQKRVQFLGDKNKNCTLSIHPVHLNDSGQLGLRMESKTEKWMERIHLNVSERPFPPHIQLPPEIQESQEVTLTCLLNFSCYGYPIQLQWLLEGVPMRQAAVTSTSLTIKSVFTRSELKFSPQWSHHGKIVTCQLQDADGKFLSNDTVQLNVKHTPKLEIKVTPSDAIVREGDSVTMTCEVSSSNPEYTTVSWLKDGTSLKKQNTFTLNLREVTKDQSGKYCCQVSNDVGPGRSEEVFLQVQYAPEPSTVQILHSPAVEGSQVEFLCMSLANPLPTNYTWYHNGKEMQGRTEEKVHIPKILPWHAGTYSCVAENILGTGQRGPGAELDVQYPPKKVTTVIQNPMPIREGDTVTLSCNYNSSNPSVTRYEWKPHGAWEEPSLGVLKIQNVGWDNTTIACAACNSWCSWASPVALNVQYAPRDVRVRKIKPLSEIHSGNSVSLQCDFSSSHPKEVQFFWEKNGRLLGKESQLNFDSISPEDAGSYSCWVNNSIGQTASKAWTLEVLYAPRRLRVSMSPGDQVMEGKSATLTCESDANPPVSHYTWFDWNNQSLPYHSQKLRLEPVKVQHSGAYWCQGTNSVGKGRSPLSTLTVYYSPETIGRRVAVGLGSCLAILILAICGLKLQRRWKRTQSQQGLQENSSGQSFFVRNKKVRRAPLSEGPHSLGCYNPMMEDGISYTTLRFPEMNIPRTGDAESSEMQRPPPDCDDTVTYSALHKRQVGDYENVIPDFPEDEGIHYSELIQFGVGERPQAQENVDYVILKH
The experiment in a line: cell binding, Daudi cells. The protocol:
Binding to CD22 positive cells was assessed by flow cytometry (Guava easyCyte 8HT, EMD Millipore) using the Daudi cell line (ATCC). Briefly, 100,000 target cells were stained with a dilution series of purified UniAbs™ for 30 minutes at 4° C. Following incubation, the cells were washed twice with flow cytometry buffer (1×PBS, 1% BSA, 0.1% NaN_3) and stained with goat F(ab')2 anti-human IgG conjugated to R-phycoerythrin (PE) (Southern Biotech, cat. #2042-09) to detect cell-bound antibodies. After a 20-minute incubation at 4° C., the cells were washed twice with flow cytometry buffer and then mean fluorescence intensity (MFI) was measured by flow cytometry. EC50 values were calculated using GraphPad Prism 7. Binding to *cynomolgus* CD22 positive cells was determined using the same protocol with the following modifications: the target cells were from CHO cells stably transfected to express the extracellular domain of *cynomolgus* CD22 and each antibody was tested at a single concentration (~1.7 µg/mL) so EC50 values were not calculated.

Assay [2] concerns the target T2, human CD22 protein (recombinant CD22 extracellular domain) (human, UniProt P20273 20-687).
T2 construct: extracellular domain; also called SIGLEC-2
T2 sequence (looked up): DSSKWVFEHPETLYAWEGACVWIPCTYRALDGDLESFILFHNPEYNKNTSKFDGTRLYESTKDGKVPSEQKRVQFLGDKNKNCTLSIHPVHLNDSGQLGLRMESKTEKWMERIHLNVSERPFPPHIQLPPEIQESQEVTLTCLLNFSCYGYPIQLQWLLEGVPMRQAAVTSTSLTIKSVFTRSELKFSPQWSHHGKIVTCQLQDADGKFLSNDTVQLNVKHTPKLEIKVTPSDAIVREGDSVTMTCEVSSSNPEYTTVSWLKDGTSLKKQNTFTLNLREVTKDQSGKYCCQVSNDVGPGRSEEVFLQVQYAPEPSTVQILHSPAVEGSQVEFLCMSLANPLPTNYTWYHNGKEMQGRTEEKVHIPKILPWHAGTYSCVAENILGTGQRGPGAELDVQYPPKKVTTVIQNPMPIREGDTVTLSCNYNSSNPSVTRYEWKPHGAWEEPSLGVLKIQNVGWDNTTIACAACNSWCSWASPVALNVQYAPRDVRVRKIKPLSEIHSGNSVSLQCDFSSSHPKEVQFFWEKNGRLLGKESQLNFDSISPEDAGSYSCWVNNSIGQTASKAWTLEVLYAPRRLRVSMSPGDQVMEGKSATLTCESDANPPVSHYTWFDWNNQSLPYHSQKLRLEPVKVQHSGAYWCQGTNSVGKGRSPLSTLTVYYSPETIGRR
Briefly: ELISA on recombinant CD22 extracellular domain and/or cell binding.

B1: anti-CD22 heavy chain-only antibody with the VH of SEQ ID NO: 74 (antibody, V domains shown)
VH: QLQLQESGPGLVKPSETLSLTCTVSGDSISSGDYYWGWIRQSPEKGLEWIGHIYYSGVTYYNPSLKNRVTISVDTSKNQFSLKLSSVTAADTAVYYCKRDDSSNWRSRGQGTLVTVSS
notes: Heavy chain-only antibody (UniAb), human IgG
On to B1, for which the binding result in assay [1] and in assay [2] was “binds” in each case.

B2: anti-CD22 heavy chain-only antibody with the VH of SEQ ID NO: 82 (antibody, V domains shown)
VH: QLQLQESGPGLVKPSETLSLTCTVSGGSISSSSYYWGWIRQPPGKGLEWIGSIYYSGATYYNPSLKNRVTISVDTSRNQFSLNLSSVTAADTAVYYCTRDDSSNWRSRGQGTLVTVSS
notes: as for B1
With B2, the binding result in assay [1] and in assay [2] was “binds” in each case.

B3: anti-CD22 heavy chain-only antibody with the VH of SEQ ID NO: 81 (antibody, V domains shown)
VH: QLQLQESGPGLVKPSETLSLTCTVSGGSIISSSYYWGWIRQPPGKGLEWIGSIYYSGSAYYHPSLKSRVTISIDTSKNQFSLKLSSVTAADTAVYYCARDDSSNWRSRGQGTLVTVSS
notes: as for B1
Turning to B3, the binding result in assay [1] and in assay [2] was “binds” in each case.

B4: anti-CD22 heavy chain-only antibody with the VH of SEQ ID NO: 76 (antibody, V domains shown)
VH: QLQLQESGPGLVKPSETLSLTCTVSGGSISSSSYYWGWIRQPPGKGLEWIGSVYYTGATYYNPSLKNRVTISVDTSKNQFSLKLSSVTAADTAVYYCTRDDSSNWRSRGQGTLVTVSS
notes: as for B1
Consider B4, for which the binding result in assay [1] and in assay [2] was “binds” throughout.

B5: anti-CD22 heavy chain-only antibody with the VH of SEQ ID NO: 79 (antibody, V domains shown)
VH: QLQLQESGPGLVKPSETLSLTCTVSGGSISSSSYYWGWIRQPPGKGLEWIGSIYYSGSTYYNPSLKNRVTISVDTSRNQFSLNLSSVTAADTAVYYCTRDDSSNWRSRGQGTLVTVSS
notes: as for B1
Take B5: the binding result in assay [1] and in assay [2] was “binds” in each case.

B6: anti-CD22 heavy chain-only antibody with the VH of SEQ ID NO: 84 (antibody, V domains shown)
VH: QLQLQESGPGLVKPSETLSLTCTVSGGSINDNSHYWGWIRQPPGKGLEWIGHIYYSGATYYNPSLKNRVTISVDTSRNQFSLNLSSVTAADTAVYYCTREDSSSWRSRGQGTLVTVSS
notes: as for B1
Take B6: the binding result in assay [1] and in assay [2] was “binds” in each case.

B7: anti-CD22 heavy chain-only antibody with the VH of SEQ ID NO: 83 (antibody, V domains shown)
VH: QLQLQESGPGLVKPSETLSLTCTVSGDSISSGDYYWGWIRQPPGKGLEWIGHIYYSGATYYNPSLKNRVTISVDTSRNQSSLNLSSVTAADTAVYYCTREDSSNWRSRGQGTLVTVSS
notes: as for B1
B7: the binding result in assay [1] and in assay [2] was “binds” in each case.

B8: anti-CD22 heavy chain-only antibody with the VH of SEQ ID NO: 80 (antibody, V domains shown)
VH: QLQLQESGPGLVKPSETLSLTCTVSGGSISSSSYYWGWIRQPPGKGLEWIGHIYYSGATYYNPSLKNRVTISVDTSRNQFSLNLSSVTAADTAVYYCTREDSSNWRSRGQGTLVTVSS
notes: as for B1
For B8, the binding result in assay [1] and in assay [2] was “binds” throughout.

B9: anti-CD22 heavy chain-only antibody with the VH of SEQ ID NO: 78 (antibody, V domains shown)
VH: QLQLQESDPGLVKPSETLSLTCTVSGGSISSSSHYWGWIRQPPGKGLEWIGHIYYSGATYYNPSLKNRVTISVDTSRNQFSLNLSSVTAADTAVYYCTREDSSNWRSRGQGTLVTVSS
notes: as for B1
Regarding B9, the binding result in assay [1] and in assay [2] was “binds” each time.

B10: anti-CD22 heavy chain-only antibody with the VH of SEQ ID NO: 75 (antibody, V domains shown)
VH: QLQLQESGPGLVKPSETLSLTCTVSGGSISSSSYYWGWIRQPPGKGLEWIGHIYYSGATYYNPSLKNRVTISVDTSKNQFSLKLSSVTAADTAVYYCTREDSSSWRSRGQGTLVTVSS
notes: as for B1
Take B10: the binding result in assay [1] and in assay [2] was “binds” each time.

B11: anti-CD22 heavy chain-only antibody with the VH of SEQ ID NO: 77 (antibody, V domains shown)
VH: QLQLQESGPGLVKPSETLSLTCTVSGGSISSSSYYWGWFRHPPGKGLDWIGSIHYSGSTYYNPSLKSRVTISVDTSRNQFSLNLSSVTAADTAVYYCTRDDSSNWRSRGQGTLVTVSS
notes: as for B1
In the case of B11, the binding result in assay [1] and in assay [2] was “binds” in each case.

B12: anti-CD22 heavy chain-only antibody with the VH of SEQ ID NO: 55 (antibody, V domains shown)
VH: QLQLQESGPGLVKPSETLSLTCAVYGGSFSGYYWGWIRQPPGKGLEWIGHIYYSGATYYNPSLKNRVTISVDTSRNQFSLNLSSVTAADTAVYYCTREDSSSWRSRGQGTLVTVSS
notes: as for B1
As to B12, the binding result in assay [1] and in assay [2] was “binds” each time.
